Kd and koff data for one molecule are collected here from article PMC8868134 (Antibiotics, 2022).

The target in this experiment is T1, MexB (RND inner membrane transporter) (Pseudomonas aeruginosa, UniProt P52002 1-1046).
T1 sequence: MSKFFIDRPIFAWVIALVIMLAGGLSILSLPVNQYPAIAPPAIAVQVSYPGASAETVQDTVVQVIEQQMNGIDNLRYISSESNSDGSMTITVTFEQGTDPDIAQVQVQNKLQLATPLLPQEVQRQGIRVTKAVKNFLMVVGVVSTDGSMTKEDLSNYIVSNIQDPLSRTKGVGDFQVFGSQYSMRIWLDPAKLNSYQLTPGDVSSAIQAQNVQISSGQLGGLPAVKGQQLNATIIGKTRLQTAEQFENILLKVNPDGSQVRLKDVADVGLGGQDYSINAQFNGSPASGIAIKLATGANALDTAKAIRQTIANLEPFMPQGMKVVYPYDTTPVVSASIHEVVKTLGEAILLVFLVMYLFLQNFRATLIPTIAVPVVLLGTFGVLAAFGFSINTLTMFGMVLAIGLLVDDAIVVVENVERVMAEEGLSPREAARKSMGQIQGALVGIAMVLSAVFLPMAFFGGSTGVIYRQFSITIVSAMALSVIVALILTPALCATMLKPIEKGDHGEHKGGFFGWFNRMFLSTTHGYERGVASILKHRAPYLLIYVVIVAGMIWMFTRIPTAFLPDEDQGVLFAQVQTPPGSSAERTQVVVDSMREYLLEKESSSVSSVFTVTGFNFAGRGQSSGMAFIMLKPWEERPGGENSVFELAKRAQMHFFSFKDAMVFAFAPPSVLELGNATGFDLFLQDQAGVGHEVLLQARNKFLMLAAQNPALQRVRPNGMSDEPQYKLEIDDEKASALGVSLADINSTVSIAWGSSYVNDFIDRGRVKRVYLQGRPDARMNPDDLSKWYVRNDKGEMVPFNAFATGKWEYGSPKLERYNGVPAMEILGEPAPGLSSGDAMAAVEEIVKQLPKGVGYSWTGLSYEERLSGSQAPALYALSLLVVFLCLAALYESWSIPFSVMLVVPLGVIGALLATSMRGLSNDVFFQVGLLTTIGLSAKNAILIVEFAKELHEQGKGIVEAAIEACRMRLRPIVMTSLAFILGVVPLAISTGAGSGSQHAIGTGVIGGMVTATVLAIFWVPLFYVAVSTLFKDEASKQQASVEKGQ
Description: BLI.

By Kd is commonly meant the concentration at which binding is half-saturated. Low values mean higher affinity, high ones lower affinity. As a reminder, the koff is the rate constant with which the complex falls apart.

B1: MexA wild type (periplasmic adaptor protein of MexA-MexB-OprM) (natural protein)
chain: CGKSEAPPPAQTPEVGIVTLEAQTVTLNTELPGRTNAFRIAEVRPQVNGIILKRLFKEGSDVKAGQQLYQIDPATYEADYQSAQANLASTQEQAQRYKLLVADQAVSKQQYADANAAYLQSKAAVEQARINLRYTKVLSPISGRIGRSAVTEGALVTNGQANAMATVQQLDPIYVDVTQPSTALLRLRRELASGQLERAGDNAAKVSLKLEDGSQYPLEGRLEFSEVSVDEGTGSVTIRAVFPNPNNELLPGMFVHAQLQEGVKQKAILAPQQGVTRDLKGQATALVVNAQNKVELRVIKADRVIGDKWLVTEGLNAGDKIITEGLQFVQPGVEVKTVPAKNVASAQKADAAPAKTDSKG
B1 gave a Kd of 23 µM and a dissociation rate constant (koff) of 0.0055 s⁻¹.
